B1: TPR t1 (parent)
chain: GACCAAUCUGCCCUCAGAGCUCGAGAACAUCUUCGGAUGCAGAGGAGGCAGGCUUCGGUGGCGCGAUAGCGCCAACGUCCUCAACCUCCAAUGCAUCCCACCACAUGAUGAUGCCUGAAGAGCCUUGGUUUUUUG

Variants of: B1
Test: polymerase ribozyme fitness, log enrichment relative to wild type (log ratio); higher = more active; in vitro selection for triplet polymerase activity
How it was run: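 One round of in vitro selection, in triplicate, was applied to PCR-built, transcribed mutant libraries of each subunit of a heterodimeric triplet polymerase ribozyme. The steps were annealing with a biotinylated primer, partner subunit and triplets, incubation frozen at −7 °C, gel excision of extended constructs, streptavidin-bead capture and RT-PCR. Fitness is the logarithm, base 2, of genotype enrichment over wild-type enrichment from inverse-variance-weighted replicate averages of Illumina-sequenced inputs and outputs, keeping genotypes with ≥10 input reads and ≥1 read per output.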

Row | Variant | polymerase ribozyme fitness (log ratio)
1 | G39U G48C U78G G113U | -4.42
2 | C40A A43U G63U C89U C102U U106C C123A | -7.19
3 | G39C C53G C124U G128U | -0.975
4 | G39A C82A | -0.962
5 | G39U C64U C101G A108G | -4.66
6 | C40A G45A C56U G110C | -6.54
7 | G39U C102A | -3.45
8 | C40A C80A G93U C101A | -3.95
9 | G39U C53G U87A A90G | -0.306
10 | G39C G45U G61A U112C | 0.603
11 | G39C A111C G113A | -3.44
12 | G39A A43U C70U C82U G113C U132C | -3.27
13 | G39A C86G | -1.11
14 | G39U C53U G61U C123A G135U | -0.952
15 | G39A C89G A90C | -2.4
16 | C40A A66U C72G C94U | -3.54
17 | C40A G117U | -4.5
18 | G39C C97U G120C | 0.357
19 | G39A C62U A83U U87G | -0.927
20 | G39A G69C U112A | -1.42
21 | G39A G71C G93C C94U | -2.14
22 | G39A C62A C72G | -4.2
23 | G39U G52U G61U C102U | -4.31
24 | G39A A50U G63C | -2.66

Row | Variant | polymerase ribozyme fitness (log ratio)
25 | G39A C40U C72G | -2.72
26 | C40A C89G C101A U130G | -5.66
27 | G39U A50C | -1.21
28 | U38G G69C C86U C115A | -3.28
29 | C40A G71A U125A | -2.51
30 | C40A G63U U81A U129A | -5.05
31 | G39U C70U U96G G113U | -7.29
32 | G39U U112C G127A | -0.476
33 | G39U G60U U129G | -2.5
34 | G39U U78G A83C A91G U129A | -3.94
35 | G39U C53U | -0.876
36 | G39U C53G | 0.711
37 | G39U C70U | -2.34
38 | C40A A108G A119G G122U | -2.47
39 | G39U G45U C62U U112C | -0.882
40 | C40A G110A U116A | -5.12
41 | C40A G57A | -3.1
42 | G39U G48A G61C | -2.96
43 | G39A A43U C72G | -1.83
44 | G39U C79U C89A A111U | -5.59
45 | G39A C72U U81G U96A G113C C124U | -6.86
46 | C40A G52A C101A | -3.1
47 | C40A C114A G135A | -3.46
48 | C40A G120U | -0.939

Row | Variant | polymerase ribozyme fitness (log ratio)
49 | C40A G120A | -0.957
50 | G39A U116A U129C | -3.92
51 | C40A G60A G93A A121U | 1
52 | U38G G93C A121U U133G | -1.6
53 | G39A G44U C86A A108U C115U G128U U130G | -6.8
54 | G39A C40G G69U C101A | -2.28
55 | G39U C104A G120A | -1.22
56 | G39U C72U | -1.72
57 | C40A G44C C49G U54A G71A C99U U109A C115U U130G | -6.71
58 | G39A G63U | -2.24
59 | G39A G63C | -1.48
60 | G39A A43U C88G C123A | -4.11
61 | G39A G48A C88A | -1.33
62 | U38G U55C G61A A91C A108C G110U C124A U126C | -6.93
63 | G39U G63U G113A | -3.09
64 | G39A A46U U87A U106A | 0.825
65 | C40A G48A U55A G60U A95G G120C | -1.07
66 | C40A G44C C53A U55G G128A | -3.45
67 | C40A A46U G69U C80U G110A U112G | -7.41
68 | G39C U78C | -1.14
69 | G39A A119U | -0.287
70 | G39A G71A | -1.08
71 | G39A G71U | -0.815
72 | G39C G48U A75U | -1.28

Row | Variant | polymerase ribozyme fitness (log ratio)
73 | G39U C70U G117C G128A | -5.92
74 | G39C G57A | -1.33
75 | C40A G61C C79G | -3.56
76 | C40A A84G C104A G120C G135A | -4.9
77 | G39C C73G C102A | -4.36
78 | G39U G69U | 0.0399
79 | G39C G63C C104A | -3.07
80 | G39A C70G G120C G122U | -3.09
81 | C40A G77A | -1.33
82 | C40A G77C | -1.98
83 | C40A C70A G93U | -1.59
84 | G39A C73A | -0.374
85 | G39A A41U G69U | -0.975
86 | G39C C40U G69A | -4.36
87 | G39A G42U C80U C124U | -1.59
88 | C40A G45U G63A G69C C82A C86G C101U C114G | -6.64
89 | G39A G51U U78A | -4.54
90 | C40A A41U A50C C62A | -5.7
91 | C40A G45U G63A | -2.99
92 | G39A A46U G61A U129A | -2.38
93 | C40A C88U | -0.447
94 | G39C A50U C53U U78G | -2.26
95 | G39U G48A C70U | -1.15
96 | G39U G44A | -1.38

Row | Variant | polymerase ribozyme fitness (log ratio)
97 | G39A G71U A83U | -1.37
98 | U38G G69U C98A | -4.75
99 | G39U G52U A95U U109G | -6.38
100 | G39U C70G G122A | -3.94
101 | G39U C76G | -0.793
102 | G39U C76U | -0.958
103 | G39A A41G A83G C94A | -4.25
104 | G39A C49G G61A C89U C102G | -7.76
105 | G39A A43U C114U | -2.78
106 | G39U U78G | -0.403
107 | G39U U78C | -0.554
108 | U38G U125G | -1.35
109 | C40A A111U | -4.74
110 | C40A G69C U106A C124A | -1.51
111 | G39A C62U A75U A83C U87C | -1.16
112 | G39U C73A | -0.759
113 | G39U G128U | -3.06
114 | G39A G45A C53A C102U A111C | -3.94
115 | G39A G113U | -2.43
116 | G39U U78C A121U | 1.16
117 | G39A C62U G122A | -1.13
118 | G39A A75U G110C | -5.51
119 | C40A U92C A118G | -2.05
120 | G39C G45C C64U C82A C85G | -5.8

Row | Variant | polymerase ribozyme fitness (log ratio)
121 | G39A G113C A119U | -3.54
122 | G39C G71A | -1.21
123 | U38G G60A G110C U125A | -6.15
124 | G39A G57U U116A U125A | -4.53
125 | G39C G63A C76A G117C | -6.26
126 | G39U U55G A74C A75C C104U G113C | -3.51
127 | G39C A43U C85A U112A C115U U130C | -4.22
128 | C40A C49A C53U G110A U130G | -4.63
129 | G39C A118C | -2.89
130 | G39U G61U | 0.39
131 | G39U G61A | -0.103
132 | G39C G120A | 0.0157
133 | G39U G48U A90U | -2.92
134 | G39A A84C | -1.2
135 | C40A G61U G93C C94G C124U | -1.28
136 | G39C G48A G71U | -1.51
137 | G39A G61A U78C | -0.505
138 | C40A G52U G63U U112A | -2.78
139 | G39U C79G U96C | -4.66
140 | C40G A41U G45A G60A A91U | -4.96
141 | C40A G69U | -0.43
142 | C40A G69A | -4.81
143 | G39A G61A C85U | -0.757
144 | G39A U92C | -2.34

Row | Variant | polymerase ribozyme fitness (log ratio)
145 | G39A U92A | -3.56
146 | G39A G57U G71U U78G | -1.84
147 | C40A C56G G60A | -3.73
148 | C40A C56G A105C U106G | -4.78
149 | C40A G63U C104U C115G | -3.72
150 | G39C G69A U112A | -3.52
151 | G39U U106A G127A | -2.14
152 | U38G U96A C101U | -2.15
153 | C40A A46U | -3.32
154 | G39U C115U | -1.86
155 | G39C A41U C72U A74U G113U C114U A121G | -1.73
156 | C40A C104U G110U A111U C123G U125G | -6.57
157 | C40A U81C | -1.68
158 | G39A U132A | -0.367
159 | G39U A46G | -1.02
160 | G39C C89A C99U U106A A111G | -6
161 | C40G A41C | -3.16
162 | G39U G52C A95U C115A A118G | -3.5
163 | C40A U54G C62U | -1.83
164 | G39U C73U C99U | -4.75
165 | C40A G61U U109G | -6.14
166 | G39C C98U G117A | -3.94
167 | C40A G60A U81A | -2.66
